In patent publication US20220025021A1 (BETH ISRAEL DEACONESS MEDICAL CENTER, published 2022):
Changes are numbered by the printed parent chain.

B1: MS-112 (antibody)
VH: not shown
VL: DFVLTQSPHSLSVTPGEPASISCKSSHSLIHGDRNNYLAWYVQKPGRSPQLLIYLASSRASGVPDRFSGSGSGKDFTLKISRVEAEDVGTYYCMQGRESPWTFGQGTKVDIKRTVAAPSVFIFPPSDEQLKSGTASVVCLLNNFYPREAKVQWKVDNALQSGNSQESVTEQDSKDSTYSLSSTLTLSKADYEKHKVYACEVTHQGLSSPVTKSFNRGEC
B2: MS-113 (antibody)
VH: not shown
VL: B1 VL with F2I, H9L, A85T
B3: MS-90 (antibody)
VH: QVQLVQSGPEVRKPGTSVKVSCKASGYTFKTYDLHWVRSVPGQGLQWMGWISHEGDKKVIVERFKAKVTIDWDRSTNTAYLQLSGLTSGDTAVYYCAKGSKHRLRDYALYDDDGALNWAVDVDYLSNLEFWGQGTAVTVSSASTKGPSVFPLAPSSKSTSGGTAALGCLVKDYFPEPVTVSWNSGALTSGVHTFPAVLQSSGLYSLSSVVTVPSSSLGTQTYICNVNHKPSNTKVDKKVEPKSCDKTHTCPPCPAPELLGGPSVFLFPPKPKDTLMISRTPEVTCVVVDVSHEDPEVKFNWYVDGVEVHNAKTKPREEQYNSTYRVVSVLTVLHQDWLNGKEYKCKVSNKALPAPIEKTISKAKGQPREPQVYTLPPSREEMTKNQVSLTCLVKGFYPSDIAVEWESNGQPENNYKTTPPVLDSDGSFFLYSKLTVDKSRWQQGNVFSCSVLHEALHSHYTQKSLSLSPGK
VL: B1 VL with H9L, P18S, G73D, A85T
B4: MS-91 (antibody, V domains shown)
VH: QVQLVQSGPEVRKPGTSVKVSCKASGYTLKTYDLHWVRSVPGQGLQWMGWISHEGDKKVIVERFKAKVTIDWDRSTNTAYLQLSGLTSGDTAVYYCAKGSKHRLRDYALYDDDGALNWAVDVDYLSNLEFWGQGTAVTVSS
VL: DFVLTQSPLSLSVTPGESASISCKSSHSLIHGDRNNYLAWYVQKPGRSPQLLIYLASSRASGVPDRFSGSGSDTDFTLKISRVETEDVGTYYCMQGRESPWTFGQGTKVDIKR
B5: MS-92 (antibody, V domains shown)
VH: B4 VH with S25P, Y27N, Q46E, W72R, T87R
VL: B4 VL with F2I, L9H, T74K

Legend:
Assay in all cases: cell-based or functional assay
[1] = target: HIV-1 envelope glycoprotein of pseudovirus SC422661.8 (HIV-1)
[2] = target: HIV-1 envelope glycoprotein of pseudovirus RHPA4259.7 (HIV-1)
[3] = target: HIV-1 envelope glycoprotein of pseudovirus DU172.17 (HIV-1)
[4] = target: HIV-1 envelope glycoprotein of pseudovirus BB1012-11.TC21 (HIV-1)
[5] = target: HIV-1 envelope glycoprotein of pseudovirus CNE52 (HIV-1)
[6] = target: HIV-1 envelope glycoprotein of pseudovirus 0260.v5.c36 (HIV-1)
HIV-1 pseudovirus 263-8 = HIV-1 pseudovirus 263-8 (HIV-1)
[7] = target: HIV-1 pseudovirus SC05.8C11.2344 (HIV-1)
[8] = target: HIV-1 pseudovirus X1193_c1 (HIV-1)
[9] = target: HIV-1 pseudovirus Ce1176_A3 (HIV-1)
[10] = target: HIV-1 pseudovirus AC10.0.29 (HIV-1)
[11] = target: HIV-1 pseudovirus 6952.v1.c20 (HIV-1)

Binder	IC50 (neutralization in TZM.bl cells) [1]	IC80 (neutralization in TZM.bl cells) [1]	IC50 (neutralization in TZM.bl cells) [2]	IC80 (neutralization in TZM.bl cells) [2]	IC50 (neutralization in TZM.bl cells) [3]	IC80 (neutralization in TZM.bl cells) [3]	IC50 (neutralization in TZM.bl cells) [4]	IC80 (neutralization in TZM.bl cells) [4]	IC50 (neutralization in TZM.bl cells) (HIV-1 pseudovirus 263-8)	IC80 (neutralization in TZM.bl cells) (HIV-1 pseudovirus 263-8)	IC50 (neutralization in TZM.bl cells) [7]	IC80 (neutralization in TZM.bl cells) [7]	IC50 (neutralization in TZM.bl cells) [8]	IC80 (neutralization in TZM.bl cells) [8]	IC50 (neutralization in TZM.bl cells) [9]	IC80 (neutralization in TZM.bl cells) [9]	IC50 (neutralization in TZM.bl cells) [10]	IC80 (neutralization in TZM.bl cells) [10]	IC50 (neutralization in TZM.bl cells) [11]	IC80 (neutralization in TZM.bl cells) [11]	also measured
B1	0.275 µg/mL	1.44 µg/mL	0.195 µg/mL	0.661 µg/mL	1.77 µg/mL	4.91 µg/mL	0.032 µg/mL	0.129 µg/mL													IC50 (neutralization in TZM.bl cells) [5]: 0.133 µg/mL; IC80 (neutralization in TZM.bl cells) [5]: 1.16 µg/mL; IC50 (neutralization in TZM.bl cells) [6]: 0.022 µg/mL; IC80 (neutralization in TZM.bl cells) [6]: 0.059 µg/mL
B2	0.354 µg/mL	2.12 µg/mL	0.206 µg/mL	0.696 µg/mL	2.22 µg/mL	8.27 µg/mL	0.026 µg/mL	0.109 µg/mL													IC50 (neutralization in TZM.bl cells) [5]: 0.502 µg/mL; IC80 (neutralization in TZM.bl cells) [5]: 5.04 µg/mL; IC50 (neutralization in TZM.bl cells) [6]: 0.026 µg/mL; IC80 (neutralization in TZM.bl cells) [6]: 0.092 µg/mL
B3									0.021 µg/mL	0.109 µg/mL	1.5 µg/mL	3.84 µg/mL	0.114 µg/mL	0.399 µg/mL	0.22 µg/mL	4.24 µg/mL	0.059 µg/mL	0.592 µg/mL	2.68 µg/mL	> 25 µg/mL	
B4									0.02 µg/mL	0.075 µg/mL	0.848 µg/mL	2.84 µg/mL	0.057 µg/mL	0.388 µg/mL	0.213 µg/mL	2.04 µg/mL	0.07 µg/mL	0.632 µg/mL	2.62 µg/mL	> 25 µg/mL	
B5									0.024 µg/mL	0.208 µg/mL	1.54 µg/mL	4.09 µg/mL	0.11 µg/mL	0.529 µg/mL	0.6 µg/mL	9.78 µg/mL	0.051 µg/mL	0.446 µg/mL	7.38 µg/mL	> 25 µg/mL	
